Measurements published in the DeepSol protein solubility set.

Assay: soluble on expression in E. coli; label from the status in PepcDB or PDB records

Sequence	soluble on expression in E. coli
ELLCPAGTLKSMRYAFAYGADAVYAGQPRYSLRVRNNDFDHAQLAEGIAEAHALGKRFYVVVNIAPHNAKLKTFLRDLEPVVAMGPDALIMSDPGLIMLVRQHFPQMPIHLSVQANAVNWAAVQFWRQQGLTRVILSRELSLEEIEEIRQQVPDMELEVFVHGALCMAYSGRCLLSGYINRRDPNQGTCTNACRWEYKAVEGREDELGNVVAREPTLGRGAPTEQVFLLEEGNRPGEPMAAFEDEHGTYIMNSKDLRAVQHVERLARIGVHSLKIEGRTKSHYYVARTAQVYRQAIDDAAAGKPFDRGLMDTLESLAHRGYTEGFLRRHVHDEYQNYQHGHSLSERQQFVGELTGERRDGLAEVEVKNRFQRGDSVELMTPRGNLSLRVEDLRNAAGEAIEVAPGNGHVVYLALPEGLDLCYALLMRDLQPGQDTRQPQAERSGGCAGK	not soluble
MNVSVERYQRRKYVSQENSPMLYYVRQKSGTVRVMDVEKLADAIEANSSLTAGDVKHAIEAFVEQLRLSLTQGDKVKIDGLGTFHITLCSEGTEKEKDCTVRSIRKVNVRFVADKALHLVNASHTSTRSENNVEFVLASKGDTEGGNAGGGNTGGGGNSGGGGNSGGDEEAPDPTV	not soluble
SGMYKIILNQTARYFAKFAPDNEQNILWGLPLQYGWQYRTGRLADPTRRTNCGYESGDHMCISVDSWWADLNYFLSSLPFLAAVDSGVMGISSDQVRLLPPPKNERKFCYDVSSCRSSFPETMNKWNTFYQYLQSPFSKFDDLLKYLWAAHTSTLADNIKSFEDRYDYYSKAEAHFERSWVLAVDHLAAVLFPTTLIRSYKFQKGMPPRILLNTDVAPFISDFTAFQNVVLVLLNMLDNVDKSIGYLCTEKSNVYRDHSESSSRSYGNNS	not soluble
MKRIGLTGNIGCGKSTVAQMFRELGAYVLDADKLIHSFYRKGHPVYEEVVKTFGKGILDEEGNIDRKKLADIVFKDEEKLRKLEEITHRALYKEIEKITKNLSEDTLFILEASLLVEKGTYKNYDKLIVVYAPYEVCKERAIKRGMSEEDFERRWKKQMPIEEKVKYADYVIDNSGSIEETYKQVKKVYEELTRDPLEHHHHHH	soluble
MTAWLLSLALNLPFLGGPQEYQILVALGCSAPRHVQNGYREMLAHEVLPRLAEKVTTTQVRLTLAPITGRSYTAPARVLETPNPLSTPRFQLEEAKKTFQKEALRTFDELRKRAAAECSRGTEIIGALKAAGERARKPGRILVLAHGFEQSELMNLYDYRLKLEKREVRQGLLQRVKARLGLPNLKDQEVCIAGITAGNDNNANARLTTSIKAFWEELIQASGGRLVGYGTTPRVCPFL	soluble
MARGREAVTLLLVGWGYAPGMQTLEALDAVRRADVVYVESYTMPGSSWLYKSVVEAAGEARVVEASRRDLEERSREIVSRALDAVVAVVTAGDPMVATTHSSLAAEALEAGVAVRYIPGVSGVQAARGATMLSFYRFGGTVTLPGPWRGVTPISVARRIYLNLCAGLHTTALLDVDERGVQLSPGQGVSLLLEADREYAREAGAPALLARLPSVLVEAGAGGGHRVLYWSSLERLSTADVEGGVYSIVIPARLSGVEEWLLAAASGQRRPLEYDRSVYETVEENCKKGVYMEPV	soluble
MSRAKAAPVAGPEVAANRAGRQARIVAILSSAQVRSQNELAALLAAEGIEVTQATLSRDLEELGAVKLRGADGGTGIYVVPEDGSPVRGVSGGTDRMARLLGELLVSTDDSGNLAVLRTPPGAAHYLASAIDRAALPQVVGTIAGDDTILVVAREPTTGAQLAGMFENLR	soluble
MGSDKIHHHHHHLAADQDTETQEMLLVMSDLDAQGFDQRRINLTQAELYACIEWLARFHAMFAYEAFPKEDALDDASYDGLWPIGTYWHLATRPDELEVMTDSPLKNATEAIDARLNQARFQTLVHGDAKVANFCFHKEVESLGVNGVAAVDFQYVGAGIGVKDFIYLLGSCLDEAQLVTIYDAACSHYFKSLKQQLSGRWAAEQIEALVAEWSDLLPFAWADFERFLAGWQPQHHKRNGFSQDMTQRVLKALGSVR	not soluble
MNSTYQLFIDVTSRKCILAIYKNFKIHTSIIVDTNNNLTDIIVEHLNNLLKITNLQYQDLEAIYLNTGPGSFTGIRVGAIVAKTICTIFNKIKLFINDSLNIIANGKNDVFVYLDAKGNKSYVITITNNIQNEYKIITNKELQNELKNTSLTIIDANQIDYHDLIYNLKFDNFKLTNILDFRLNYVKKPLNLEHHHHHH	not soluble
MGSDKIHHHHHHMSTTMQVIELNGPNRLSISQRQVPETPVDGVLLKTSAVSICSTDISHYHGNLLAEDYPVILGHEYSGIVVDVGPECPSSLQGQRLAYFGQTDFGGMAEYRALRPLFAGDLRSSPFKTGRFFKDDERAAAITLPDEISDSDAPLIEPITAVLRSILTHPPAVGNRVLVLGGGPCGAIAGAILQTLYATKSVAVLERNQARQEIARSQYANFVFGSAEELRESDDDAFDYVFDALPPLVNIEADSCPRRAAMRAAKPGSKYVLYGASQTLQQFDTWLLLAKGITLASAAFDVDHFPMYKTAFVMKTAKELLLRRIIDPGWMMTNHMSFWRPQEVIQFFAEYYTTPHLKTVIHFDQ	not soluble
STVKRKPVFVKVEQLKPGTTGHTLTVKVIEANIVVPVTRKTRPASSLSRPSQPSRIVECLIGDETGCILFTARNDQVDLMKPGATVILRNSRIDMFKGTMRLGVDKWGRIEATGAASFTVKEDNNLSLVEYE	soluble
GPGSMAGKGNAKVVVTHPKSRKVRQLQRQSRREKRISEQKGKRNAKAALEAARFFWFREQCLALGRTKLAFSREEAQVLTEQYLKRNDEEIVALKSMRNPTAGRIKILEAMKTSEADDFNSSKGIVIPDITNSDNLEILTSIWDGRADTAGVVRRVGLTRTGVSPAAPAVTELEGKLLTIDEVRERSIDFTSRKARKFQTMKRVQSVKKTPTAEDVWLRSKKRGVDLQAKRLRQGREAVLKTRRAN	soluble
MVESTTTIYDVARVAGVSMATVSRVVNGNANVKEKTRQKVLEAIAELDYRPNAVARGLASKRTTTVGVILPTITSTYFAAITRGVDDIASMYKYNMILANSDNDVEKEEKVLETFLSKQVDGIVYMGSSLDEKIRTSLKNSRTPVVLVGTIDGDKEIPSVNIDYHLAAYQSTKKLIDSGNKKIAYIMGSLKDVENTERMVGYQEALLEANIEFDENLVFEGNYSYEQGKALAERLLERGATSAVVSHDTVAVGLLSAMMDKGVKVPEDFEIISGANSPITQYTYPTLTSVNQPLYDLGAVAMRLLTKLMLKEDVEQNQLVLDHEIFSRRSTK	soluble
RTDNLGLAPYGRVDLSGGSFGTFRRSVKLGSGRIGRHWAVDARLSKIGSDGYVDRGSVDLKSYFAQVGYFGSNTALRFITFGGKEVTGIAWNGLSKEDEAKYGRRYNSAGLMYVDAQGVPHYYHNTDNYEQRHYHAIMTHSFSPSVILNLTAHYTAGYGYTDEYRTGRKLKEYALQPYVENSVTVKKTDLIRQKYLDNDFGGLIGSLNWHTGAWDLQFGASGNIYKGDHFGRITYIKKYNQPLAPDFEYYRNRADKREGAAFAKANWQITPELNMYADLQYRTIGYTINGITDEYDEVQGSMQHIDLDKTFRFLNPKAGLTYSFDDAHTAYASVAVAHREPNRTNYTEAGIGQYPTPERLIDYELGYRYASPLLSAGVGLYYMQYKDQLVLDGRLSDVGQMLTSNVPDSYRMGLELTLGWQILPRLLRWDASFTMSRNKIDRYVQYTSVYDADYNWLELKEETLESTDIAYSPNVIAGSMLTLSHAGFEMAWTSRFVSKQYLDNTQRSDRMLSSYWVNDLRLGYVLPVHFVKRVALGVQLNNLFNLMYASNAYIYDAGYVQASGELSAYADLRYYPQAGFNALGSLTIDF	not soluble
MGSDKIHHHHHHMRERTVDYSFCGMVRSRERLARQIVFHHIPKTAGSSFNQILRTLYRDDEVCDAALDDELDEVMADETRRYELFVGHFSFDALHRHFGGATRLTFLRDPVQRCISQYHNWHDASRYSDAWIGRSDTNPDVIKALKMTSEMSLCEFVSSDNLVISDSAQNMMTRYLAPSVEWKKERGYYDAELVEKAKRNLVEYFHFFGLTEQFDRSLVLLAHTLGIRPWERSDALLTNRNPKKASFDSVYNTTPEEGGVLRDYNLMDIELYEFAVKEFNRRFDAGYQKLVECAFEYLADKDTRDMGNAGDFYAFDMTNAVGARGLHFLESTRLPCGADVLGRWTGLEPRAVWEIPLRAGRDSHVVIEVDYIDSVSPEALAPEHFTLNGMPARQHAFSAEGSIQRLRLVFSAGAALAGRMLHTLKLTTPLVRAEDGTRDVGVLLLRLQSYSV	not soluble
MISCSEEGSNKILVAISLDRDESQNVLSWAINVLAKPSDTVVALHLLVGEEPRKLPMKKKKRTQIRHAKAHVISMLGEFAYTCCHNQVNLEAKVGFSSNIGRGLIDEVKSISAHYLVLSRPTTHEFR	soluble
MLSLFALSEENKPELDCVANPTLLPHDIMYFDGFLSSEDEAFVADRLDAGEWSTELKRRVQHFGYRYDYKVRAVTPDAYLGPLPPWLGLFAERLVADGYCRTVPDQVIANEYLLGQGISAHVDCVPCFDDTIVSISLLSACEMVFRDLRGPGIRSVLHPRSGVLLRGSSRYDWTHEIPARKSDIVNGVKTARSRRISLTFRKVLGLKRPLEHHHHHH	not soluble
AFYNITLRTNDGEKKIECNEDEYILDASERQNVELPYSCRGGSCSTCAAKLVEGEVDNDDQSYLDEEQIKKKYILLCTCYPKSDCVIETHKEDELHDM	soluble
MRISSLLFLTFLAGIVQAQDFLAMFKPFLGGGGGGGNPFANPQAIGGLFQQFAGGNGGGFGQLLAGAMAPKPAPAAAGPRSAPAPTNEDYNTDIDVPAPKAKARAAPTPRRAQGDDDDNIDMSLTRLG	not soluble
MSLRLKILIKLSGAGMSADSSEPFSNQFLETVIAQLKQLVPNYQIGIVIGGGNIMRGKSCSDYNITEIAGHHLGIMATVINGAFLKAKFDSHKLNSTLLSAVSCPSLATHIVSQATIDDAFKNHDIVIFAGGTGNPYFSTDTAVALRATQMQADIILIGKNGVDGVYTADPKKDKHAKFLASLTYAEAIKNDLQIMDITAFTMCKENNLKVIIFNINAEHAIIKALSKQGKYTLIEKEGHHHHHH	soluble
MASIPTVNVIGAGLAGSEAAWHIANMGVNVRLYEMRPNKMTPAHHTAQFAELVCTNSLRANQLANAAGLLKAEMRQMDSIVMQAAEHHAVPAGGALAVDRDTFSAEITAAITALPNVEIINEEITSLPDGITVVATGPLTAASLAKSIQAFNDEDDLHFFDAAAPILTKDSIDMDKVYLKSRYDRGEAAYLNCPMTEAEFDVFYDALIHAEMAEAHDFENSDVFEGCMPIEVMAQRGRQTMLFGPLKPVGLEDPKTGKQPFAVVQLRQDDAAGDLYNIVGFQTHLKWGEQKRVFSLIPGLENVEFVRYGVMHRNTFMKSPKLLTPTYQTQQRPDLFFAGQMTGVEGYIESAASGIVAGTNAARLALGLEPVVFPTDTMMGAMAHYITHTSASNFQPMNANFGIMPKLKQRIRDKRERNTAISERALADLTTFKDETLTVNNLEHHHHHH	soluble
MRNIGIIINKEKDKENKILNLVILKVKEYLNPDEIKVIDQFYKGDYKDLMSLDLLIVLGGDGTLLGVARKFSTVIDTPILGINIGNLGFLVTAEISELDEALYRIKVGDYKVEERMLLSCTIEGVTCSEERALNDIVVARGTLSRMAQYEVFINDELYATFKGDGVIISTPVGSTAYSFSAGGPLIMPDLQIVSIVPICPHTPNSRPMIIDGNNKVRVKPLINESDVFVTIDGQKALKLEKHNEVLIKKAKEFFRIISFDNKSYFKVLRKKLFKIELEHHHHHH	not soluble
